T1: engineered version of human C5aR expressed on CHO cells of the PathHunter β-arrestin assay (DiscoveRx) (human, UniProt P21730 1-350)
T1 sequence (looked up): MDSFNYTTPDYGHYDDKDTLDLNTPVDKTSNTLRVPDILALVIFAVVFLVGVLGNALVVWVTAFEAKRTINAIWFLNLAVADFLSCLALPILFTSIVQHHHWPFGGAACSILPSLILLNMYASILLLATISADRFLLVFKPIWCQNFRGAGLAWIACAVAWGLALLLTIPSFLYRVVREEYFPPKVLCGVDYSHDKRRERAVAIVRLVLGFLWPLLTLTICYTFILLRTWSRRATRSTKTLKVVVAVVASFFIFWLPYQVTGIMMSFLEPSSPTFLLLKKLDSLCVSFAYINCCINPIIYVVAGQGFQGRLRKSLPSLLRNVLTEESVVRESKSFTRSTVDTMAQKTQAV

T2: C5aR expressed on purified human neutrophils (human, UniProt P21730 1-350)
T2 sequence (looked up): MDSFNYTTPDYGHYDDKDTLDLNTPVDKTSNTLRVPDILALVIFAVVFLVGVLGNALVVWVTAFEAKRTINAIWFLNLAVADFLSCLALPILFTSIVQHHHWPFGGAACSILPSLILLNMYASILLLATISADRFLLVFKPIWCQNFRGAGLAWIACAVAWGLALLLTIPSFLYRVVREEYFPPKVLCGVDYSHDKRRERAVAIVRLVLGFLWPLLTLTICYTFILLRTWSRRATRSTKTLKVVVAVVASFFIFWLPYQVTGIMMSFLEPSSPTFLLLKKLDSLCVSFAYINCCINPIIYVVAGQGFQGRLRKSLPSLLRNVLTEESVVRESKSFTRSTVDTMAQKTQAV

T3: C5aR expressed on purified cynomolgus neutrophils (cynomolgus monkey (Macaca fascicularis))
T3 construct: Endogenous receptor on neutrophils from whole blood of three animals; also called cynomolgus C5aR expressed endogenously
T3 chain: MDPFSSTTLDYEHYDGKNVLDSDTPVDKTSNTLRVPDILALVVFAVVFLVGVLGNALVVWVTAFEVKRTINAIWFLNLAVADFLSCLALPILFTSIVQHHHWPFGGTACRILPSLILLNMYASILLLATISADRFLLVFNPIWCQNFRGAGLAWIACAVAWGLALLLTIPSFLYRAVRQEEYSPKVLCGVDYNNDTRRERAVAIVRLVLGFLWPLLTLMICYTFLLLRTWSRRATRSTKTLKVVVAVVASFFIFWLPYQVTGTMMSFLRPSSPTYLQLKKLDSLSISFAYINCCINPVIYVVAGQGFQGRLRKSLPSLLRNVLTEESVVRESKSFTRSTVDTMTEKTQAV

T4: full length cynomolgus C5aR stably expressed on CHO Flp-In cells (cynomolgus monkey (Macaca fascicularis))
T4 chain: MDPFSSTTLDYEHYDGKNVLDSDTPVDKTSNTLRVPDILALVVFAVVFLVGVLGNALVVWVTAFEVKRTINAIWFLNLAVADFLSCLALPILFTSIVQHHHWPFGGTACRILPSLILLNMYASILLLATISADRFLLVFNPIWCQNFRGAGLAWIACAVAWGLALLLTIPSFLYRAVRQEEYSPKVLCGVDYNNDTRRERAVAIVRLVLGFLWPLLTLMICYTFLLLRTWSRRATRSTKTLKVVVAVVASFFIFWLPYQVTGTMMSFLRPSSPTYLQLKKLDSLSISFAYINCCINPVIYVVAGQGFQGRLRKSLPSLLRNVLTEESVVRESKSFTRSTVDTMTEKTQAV

T5: full length human C5aR stably expressed on CHO Flp-In cells (human, UniProt P21730 1-350)
T5 construct: also called human C5aR expressed on CHO cells
T5 sequence: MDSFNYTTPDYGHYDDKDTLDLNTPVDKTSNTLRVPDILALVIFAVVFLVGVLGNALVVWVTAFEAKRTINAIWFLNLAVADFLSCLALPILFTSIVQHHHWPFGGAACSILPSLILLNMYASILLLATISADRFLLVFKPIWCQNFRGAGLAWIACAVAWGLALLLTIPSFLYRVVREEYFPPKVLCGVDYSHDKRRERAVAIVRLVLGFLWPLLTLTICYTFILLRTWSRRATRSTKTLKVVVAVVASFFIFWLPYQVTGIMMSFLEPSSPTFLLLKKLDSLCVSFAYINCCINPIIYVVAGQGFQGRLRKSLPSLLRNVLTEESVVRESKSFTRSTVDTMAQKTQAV


Experiments:
[1] = molecular target: T1, engineered version of human C5aR …; test: cell-based or functional assay
[2] = molecular target: T2, C5aR expressed on purified human …; test: cell-based or functional assay
[3] = molecular target: T3, C5aR expressed on purified cynomolgus …; test: FACS, purified cynomolgus neutrophils, IgG titration
Experimental: (§1) Neutrophils were purified from EDTA-whole blood samples using a MACSexpress® Neutrophil Isolation Cocktail from Miltenyi Biotec. Briefly, using this kit, cells are isolated using magnetic labeling and negative magnetic separation. […] Measurements were done at the FACS Array device. FACS data were evaluated using FlowJo™, entered into GraphPad® Prism (v4.0) and fitted to the sigmoidal dose-response curve using non-linear regression to calculate the EC50.

[4] = molecular target: T2, C5aR expressed on purified human …; test: cell-based or functional assay; remark: listed apart in the source
[5] = molecular target: T4, full length cynomolgus C5aR stably …; test: FACS, CHO Flp-In cells expressing cynomolgus C5aR, single IgG concentration
Experimental: (§2) The C5aR-CHO Flp-In™ cell lines were blocked and IgGs were added either in serial dilutions or at a single (high) concentration of 300 nM. For detection of IgG binding, an R-phycoerythrin (R-PE) conjugated anti-human IgG (Fc-gamma fragment specific)2 antibody was added and fluorescence was measured using the FACS Array or Novocyte device.

[6] = molecular target: T1, engineered version of human C5aR …; test: cell-based or functional assay; remark: listed apart in the source
[7] = molecular target: T5, full length human C5aR stably expressed …; test: FACS on Flp-In CHO cells, IgG titration
Experimental: as §2

[8] = molecular target: T2, C5aR expressed on purified human …; test: FACS on purified human neutrophils, IgG titration
Experimental: as §1

Binder	Activity of human C5a EC50 (nM) in absence of anti-C5aR antibody, β-arrestin recruitment (PathHunter) [1] [nM]	IgG concentration for 50% inhibition of CD11b upregulation, granulocytes, 15 nM human C5a [2] [nM]	IgG concentration for 50% inhibition of CD11b upregulation, granulocytes, 150 nM human C5a [2] [nM]	binding result [3]	CD11b assay, granulocytes, 15 nM C5a, 20 minutes of IgG incubation: IC50 [4] [nM]	CD11b assay, granulocytes, 15 nM C5a, 300 minutes of IgG incubation: IC50 [4] [nM]	CD11b assay, monocytes, 15 nM C5a, 20 minutes of IgG incubation: IC50 [4] [nM]	CD11b assay, monocytes, 15 nM C5a, 300 minutes of IgG incubation: IC50 [4] [nM]	binding result [5]	[%] inhibition at 1.2 nM C5a and 50 nM IgG, β-arrestin recruitment [6] [%]	[%] inhibition at 11 nM C5a and 50 nM IgG, β-arrestin recruitment [6] [%]	[%] inhibition at 100 nM C5a and 50 nM IgG, β-arrestin recruitment [6] [%]	Activity of human C5a EC50 (nM) in presence of 50 nM anti-C5aR antibody, β-arrestin recruitment [1] [nM]	EC50 [7] [nM]	EC50 [8] [nM]
Human C5a (ligand) TLQKKIEEIAAKYKHSVVKKCCYDGACVNNDETCEQRAARISLGPRCIKAFTECCVVASQLRANISHKDMQLGR	2.9	–	–	–	–	–	–	–	–	–	–	–	–	–	–
RefMAB #1 (antibody, human IgG1, kappa, V domains shown, also called IPH5401; NNC0215-0384) VH: EVQLVESGGGLVQPGGSLRLSCAASGFTFSSYVMHWVRQATGKGLEWVSAIDTGGGTYYADSVKGRFTISRENAKNSLYLQMNSLRAGDTAVYYCARDYYYYASGSYYKAFDIWGQGTMVTVSS VL: EIVLTQSPGTLSLSPGERATLSCRASQSVSSRYLAWYQQKPGQAPRLLIYGASSRATGIPDRFSGSGSGTDFTLTISRLEPEDFAVYYCQQYGSPLTFGQGTKLEIKR	–	12	291	no binding (tested: ~250 nM)	10.2	6.5	1.8	5.3	no binding (tested: 300 nM)	84.2	38.9	6.4	10	1.1	3.1
